Measurements: the supplement of paper PMC7877785
± gives the uncertainty stated by the source.

Assay: self-splicing fitness, log relative to wild type (ln ratio); higher = more splicing; Tetrahymena group I intron in knt gene, E. coli kanamycin selection, DiMSum; sequences stand for … in CUCUCU…GGAGGGAAAAGUUAUCAGGCAUGCACCUGGUAGCUAGUCUUUAAACCAAUAGAUUGCAUCGGUUUAAAAGGCAAGACCGUCAAAUUGCGGGAAAGGGGUCAACAGCCGUUCAGUACCAAGUCUCAGGGGAAACUUUGAGAUGGCCUUGCAAAGGGUAUGGUAAUAAGCUGACGGACAUGGUCCUAACCACGCAGCCAAGUCCUAAGUCAACAGAUCUUCUGUUGAUAUGGAUGCAGUUCACAGACUAAAUGUCGGUCGGGGAAGAUGUAUUCUUCUCAUAAGAUAUAGUCGGACCUCUCCUUAAUGGGAGCUAGCGGAUGAAGUGAUGCAACACUGGAGCCGCUGGGAACUAAUUUGUAUGCGAAAGUAUAUUGAUUAGUUUUGGAGUACUCGUGGUCG
Procedure, shortened: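 Pooled colonies went to amplicon sequencing on an Illumina HiSeq 2500 after six replicate transformations. The plates were LB agar with 100 μg/mL carbenicillin, 50 μM IPTG and 0.2% rhamnose, with or without 25 μg/mL kanamycin, incubated overnight at 37°C or 30°C. The E. coli BL21(DE3) library had all eight P1ex-region intron nucleotides randomised, the intron placed in the knt kanamycin-resistance gene on pET-22b(+). DiMSum fitness is the error-weighted combination of replicate fold changes, kanamycin against none, normalised to wild type.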

| Sequence | self-splicing fitness (ln) (30 °C) | self-splicing fitness (ln) (37 °C) |
| --- | --- | --- |
| GGUAAGCAAUAUUACGUAUU | -2.21 ± 0.12 | -1.22 ± 0.13 |
| ACUUAGCAAUAUUACGAUUC | -2.3 ± 0.098 | -0.823 ± 0.1 |
| CAAAAGCAAUAUUACGCAAC | -2.59 ± 0.16 | -2.53 ± 0.27 |
| AGGAAGCAAUAUUACGAAGG | -2.92 ± 0.28 | -2.8 ± 0.38 |
| ACUGAGCAAUAUUACGUUGC | – | -2.04 ± 0.28 |
| GUCUAGCAAUAUUACGAAGU | -1.23 ± 0.19 | -0.107 ± 0.14 |
| GAGAAGCAAUAUUACGUCAG | -3.34 ± 0.23 | -1.35 ± 0.18 |
| UCGAAGCAAUAUUACGUUUA | -3.07 ± 0.45 | -0.87 ± 0.29 |
| GCACAGCAAUAUUACGCCGA | -2.19 ± 0.22 | -1.61 ± 0.17 |
| GCUAAGCAAUAUUACGAUAA | -1.88 ± 0.17 | -1.1 ± 0.17 |
| GACUAGCAAUAUUACGUCGC | -3.63 ± 0.18 | -1.94 ± 0.16 |
| CUUCAGCAAUAUUACGUUGG | -3.67 ± 0.23 | -4.08 ± 0.46 |
| ACCAAGCAAUAUUACGUUCU | -1.56 ± 0.06 | -0.915 ± 0.076 |
| GGCCAGCAAUAUUACGUAGA | -1.59 ± 0.12 | -1.04 ± 0.15 |
| CGCUAGCAAUAUUACGUUUC | -2.78 ± 0.17 | -2.23 ± 0.22 |
| UUAAAGCAAUAUUACGGGGC | -3.68 ± 0.25 | -2.51 ± 0.32 |
| UGGGAGCAAUAUUACGGUAG | -3.16 ± 0.28 | -1.26 ± 0.21 |
| GCGAAGCAAUAUUACGUACG | -2.46 ± 0.37 | -2.24 ± 0.34 |
| CAUAAGCAAUAUUACGGACG | 0.133 ± 0.093 | 0.568 ± 0.12 |
| GUCUAGCAAUAUUACGCAGA | – | -2.48 ± 0.31 |

| Sequence | self-splicing fitness (ln) (30 °C) | self-splicing fitness (ln) (37 °C) |
| --- | --- | --- |
| UUAAAGCAAUAUUACGUACC | -1.73 ± 0.12 | -0.333 ± 0.16 |
| UGGGAGCAAUAUUACGUUCG | -1.34 ± 0.22 | -0.604 ± 0.3 |
| UUGCAGCAAUAUUACGACAU | -0.522 ± 0.012 | 0.00633 ± 0.032 |
| CACAAGCAAUAUUACGGCCA | -1.1 ± 0.13 | -0.928 ± 0.16 |
| AACCAGCAAUAUUACGUCGA | -0.87 ± 0.071 | -0.757 ± 0.07 |
| CCGGAGCAAUAUUACGCAGG | -3.9 ± 0.27 | -2.67 ± 0.23 |
| GCUAAGCAAUAUUACGUCAG | -3.84 ± 0.28 | -2.21 ± 0.22 |
| UUAAAGCAAUAUUACGUUCU | -1.08 ± 0.091 | -0.401 ± 0.12 |
| GAGGAGCAAUAUUACGGAAC | -3.68 ± 0.44 | -0.46 ± 0.28 |
| CACAAGCAAUAUUACGCGAC | -2.93 ± 0.15 | -3.22 ± 0.27 |
| CAAUAGCAAUAUUACGGCUU | -2.53 ± 0.13 | -1.42 ± 0.13 |
| CCACAGCAAUAUUACGAGCA | -3.6 ± 0.18 | -2.89 ± 0.19 |
| CAUCAGCAAUAUUACGUUUA | -1.36 ± 0.086 | -1.36 ± 0.094 |
| UGUUAGCAAUAUUACGCCUU | -0.953 ± 0.37 | -1.4 ± 0.33 |
| CGAGAGCAAUAUUACGAUAA | -4.29 ± 0.46 | -2.37 ± 0.45 |
| AGCAAGCAAUAUUACGUGGG | -3.44 ± 0.12 | -2.37 ± 0.16 |
| AACAAGCAAUAUUACGGGCA | -0.586 ± 0.058 | -0.0288 ± 0.066 |
| UGCGAGCAAUAUUACGCGUC | -2.18 ± 0.26 | – |
| AGAAAGCAAUAUUACGCUAA | -2.38 ± 0.34 | -1.11 ± 0.4 |
